Test results taken from patent US20140248666A1 (Amgen, published 2014).

T1: human sclerostin, mature form (signal peptide removed) (human, UniProt Q9BQB4 24-213)
T1 construct: 190 amino acid glycoprotein with four disulfide bonds (C1-C5, C2-C6, C3-C7, C4-C8); also called SOST; recombinant human sclerostin
T1 sequence: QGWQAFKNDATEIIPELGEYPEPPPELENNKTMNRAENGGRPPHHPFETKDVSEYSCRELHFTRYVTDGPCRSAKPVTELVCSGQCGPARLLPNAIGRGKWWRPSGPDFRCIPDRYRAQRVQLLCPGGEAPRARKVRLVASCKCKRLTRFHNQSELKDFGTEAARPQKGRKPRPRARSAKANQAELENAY

B1: Antibody 19 (antibody, V domains shown)
VH: EVQLQQSGPELVKPGASVKMSCKASGFTFTDYIMHWVKQKPGQGLEWIGYINPYNDDTEYNEKFKGKATLTSDKSSSTAYMDLSSLTSEGSAVYYCARSIYYYDAPFAYWGQGTLVTVSS
VL: DIQMTQTTSSLSASLGDRVNISCRASQDISSYLNWYQQKPDGTVKLLIYSTSRLNSGVPSRFSGSGSGTDYSLTISNLAQEDIATYFCQQDIKHPTFGGGTKLELKR
notes: the signal peptide is not part of the antibody as tested; Parent of humanized Ab-20 and Ab-23; also called Ab-19
B2: Antibody 5 (antibody, human IgG2, kappa, V domains shown)
VH: EVQLVQSGAEVKKPGASVKVSCKASGYTFTDYNMHWVRQAPGQGLEWMGEINPNSGGAGYNQKFKGRVTMTTDTSTSTAYMELRSLRSDDTAVYYCARLGYDDIYDDWYFDVWGQGTTVTVSS
VL: DIQMTQSPSSLSASVGDRVTITCRASQDISNYLNWYQQKPGKAPKLLIYYTSRLLSGVPSRFSGSGSGTDFTLTISSLQPEDFATYYCQQGDTLPYTFGGGTKVEIKR
notes: Humanized Ab-4; Mature LC and HC; also called Ab-5
B3: Antibody 14 (antibody, human IgG2, kappa, V domains shown)
VH: EVQLVQSGAEVKKPGASVKVSCKASGYTFTDYYMNWVRQAPGQRLEWMGDINPYNDDTTYNHKFKGRVTITRDTSASTAYMELSSLRSEDTAVYYCARETAVITTNAMDYWGQGTTVTVSS
VL: DIQLTQSPSFLSASVGDRVTITCRASSSVTSSYLNWYQQKPGKAPKLLIYSTSNLASGVPSRFSGSGSGTEFTLTISSLQPEDFATYYCQQYDFFPSTFGGGTKVEIKR
notes: Humanized Ab-13; Mature LC and HC; also called Ab-14; Ab14
B4: Antibody 13 (antibody, mouse IgG1, kappa, V domains shown)
VH: EVQLQQSGPELVKPGASVKMSCKASGYTFTDYYMNWVKQSHGESLEWIGDINPYNDDTTYNHKFKGKATLTVDKSSNTAYMQLNSLTSEDSAVYYCARETAVITTNAMDYWGQGTSVTVSS
VL: QIVLTQSPAIMSASPGEKVTMTCRASSSVTSSYLNWYQQKPGSSPKLWIYSTSNLASGVPARFSGSGSGTSYSLTISSVEAEDAATYYCQQYDFFPSTFGGGTKLEIKR
notes: Mature LC and HC; Parent of humanized Ab-14; also called Ab-13
B5: Antibody 4 (antibody, mouse IgG1, kappa, V domains shown)
VH: EVQLQQSGPELMKPGASVKMSCKASGYTFTDYNMHWVKQNQGKTLEWIGEINPNSGGAGYNQKFKGKATLTVDKSSTTAYMELRSLTSEDSAVYYCARLGYDDIYDDWYFDVWGAGTTVTVSS
VL: DIQMTQITSSLSASLGDRVSISCRASQDISNYLNWYQQKPDGTFKLLIFYTSRLLSGVPSRFSGSGSGTDYSLTIYNLEQEDFATYFCQQGDTLPYTFGGGTKLEIKR
notes: Mature LC and HC; Parent of humanized Ab-5; also called Ab-4
B6: Antibody 23 (antibody, human IgG2, kappa)
light: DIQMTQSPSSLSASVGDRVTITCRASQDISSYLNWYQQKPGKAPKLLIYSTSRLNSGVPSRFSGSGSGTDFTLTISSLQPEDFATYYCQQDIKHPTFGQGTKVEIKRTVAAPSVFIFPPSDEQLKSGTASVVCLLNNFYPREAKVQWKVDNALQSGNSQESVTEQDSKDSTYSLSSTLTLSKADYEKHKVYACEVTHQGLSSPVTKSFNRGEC
heavy: EVQLVQSGAEVKKPGSSVKVSCKASGFTFTDYIMHWVRQAPGQGLEWMGYINPYNDDTEYNEKFKGRVTITADKSTSTAYMELSSLRSEDTAVYYCARSIYYYDAPFAYWGQGTLVTVSSASTKGPSVFPLAPCSRSTSESTAALGCLVKDYFPEPVTVSWNSGALTSGVHTFPAVLQSSGLYSLSSVVTVPSSNFGTQTYTCNVDHKPSNTKVDKTVERKCCVECPPCPAPPVAGPSVFLFPPKPKDTLMISRTPEVTCVVVDVSHEDPEVQFNWYVDGVEVHNAKTKPREEQFNSTFRVVSVLTVVHQDWLNGKEYKCKVSNKGLPAPIEKTISKTKGQPREPQVYTLPPSREEMTKNQVSLTCLVKGFYPSDIAVEWESNGQPENNYKTTPPMLDSDGSFFLYSKLTVDKSRWQQGNVFSCSVMHEALHNHYTQKSLSLSPGK
notes: Humanized Ab-19, IgG2 version; Mature LC and HC; also called Ab-23
B7: Antibody 3 (antibody, mouse IgG1, kappa)
light: EIVLTQSPALMAASPGEKVTITCSVSSTISSNHLHWFQQKSDTSPKPWIYGTSNLASGVPVRFSGSGSGTSYSLTISSMEAEDAATYYCQQWSSYPLTFGAGTKLELRRADAAPTVSIFPPSSEQLTSGGASVVCFLNNFYPKDINVKWKIDGSERQNGVLNSWTDQDSKDSTYSMSSTLTLTKDEYERHNSYTCEATHKTSTSPIVKSFNRNEC
heavy: EVQLQQSGAELVRPGALVKLSCTASDFNIKDFYLHWMRQRPEQGLDWIGRIDPENGDTLYDPKFQDKATLTTDTSSNTAYLQLSGLTSETTAVYYCSREADYFHDGTSYWYFDVWGAGTTITVSSAKTTPPSVYPLAPGSAAQTNSMVTLGCLVKGYFPEPVTVTWNSGSLSSGVHTFPAVLQSDLYTLSSSVTVPSSTWPSETVTCNVAHPASSTKVDKKIVPRDCGCKPCICTVPEVSSVFIFPPKPKDVLTITLTPKVTCVVVDISKDDPEVQFSWFVDDVEVHTAQTQPREEQFNSTFRSVSELPIMHQDWLNGKEFKCRVNSAAFPAPIEKTISKTKGRPKAPQVYTIPPPKEQMAKDKVSLTCMITDFFPEDITVEWQWNGQPAENYKNTQPIMDTDGSYFIYSKLNVQKSNWEAGNTFTCSVLHEGLHNHHTEKSLSHSPGK
notes: Mature LC and HC (signal peptide removed); Parent of humanized Ab-15; also called Ab-3

target: T1, human sclerostin, mature form (signal …); assay: KinExA solution equilibrium binding, human sclerostin-coated beads
Method: The affinity of several anti-sclerostin antibodies to human sclerostin was assessed by a solution equilibrium binding analysis using KinExA® 3000 (Sapidyne Instruments Inc., Boise, Id.). For these measurements, Reacti-Gel 6× beads (Pierce, Rockford, Ill.) were pre-coated with 40 μg/ml human sclerostin in 50 mM Na2CO3, pH 9.6 at 4° C. overnight. The beads were then blocked with 1 mg/ml BSA in 1M Tris-HCl, pH 7.5 at 4° C. for two hours. 10 pM, 30 pM, or 100 pM of the antibody was mixed with various concentrations of human sclerostin, ranging in concentration from 0.1 pM to 1 nM, and equilibrated at room temperature for over 8 hours in PBS with 0.1 mg/ml BSA and 0.005% P20. The mixtures were then passed over the human sclerostin coated beads. The amount of bead-bound anti-sclerostin antibody was quantified using fluorescent Cy5-labeled goat anti-mouse-IgG or fluorescent Cy5-labeled goat anti-human-IgG antibodies (Jackson Immuno Research, West Grove, Pa.) for the mouse or human antibody samples, respectively. The amount of fluorescent signal measured was proportional to the concentration of free anti-sclerostin antibody in each reaction mixture at equilibrium. The dissociation equilibrium constant (KD) was obtained from nonlinear regression of the competition curves using a n-curve one-site homogeneous binding model provided in the KinExA Pro software.

First: B1
Second: B2
The Kd of the first is 2-fold lower: 3 pM for the first, 6 pM for the second. The first binds more tightly here.

Going from B3 to B4, the Kd falls from 1 pM to 0.6 pM (1.7-fold). The second binds more tightly here.

B5 and B6 are within 1.5-fold of each other in Kd: 3 pM for the first, 4 pM for the second.

target: T1, human sclerostin, mature form (signal …); assay: Biacore 3000; antibody captured by anti-human IgG Fc, sclerostin as analyte
Method: The assay format was capture of the anti-sclerostin antibody by immobilised anti-human IgG-Fc then titration of the sclerostin over the captured surface. An example of the procedure is given below: BIA (Biamolecular Interaction Analysis) was performed using a BIAcore 3000 (BIAcore AB). Affinipure F(ab′)₂ Fragment goat anti-human IgG, Fc fragment specific (Jackson
ImmunoResearch) was immobilised on a CM5 Sensor Chip via amine coupling chemistry to a capture level of ≈4000 response units (RUs). HBS-EP buffer (10 mM HEPES pH 7.4, 0.15 M NaCl, 3 mM EDTA, 0.005% Surfactant P20, BIAcore AB) containing 1 mg/mL CM-Dextran was used as the running buffer with a flow rate of 10 μl/min. A 10 μl injection of the anti-sclerostin antibody at ˜5 μg/mL was used for capture by the immobilised anti-human IgG-Fc. Antibody capture levels were typically 100-200 RU. Sclerostin was titrated over the captured anti-sclerostin antibody at various concentrations at a flow rate of 30 μL/min. The surface was regenerated by two 10 μL injections of 40 mM HCl, followed by a 5 μL injection of 5 mM NaOH at a flowrate of 10 μL/min.
Background subtraction binding curves were analysed using the BIAevaluation software (version 3.2) following standard procedures. Kinetic parameters were determined from the fitting algorithm.

First: B2
Second: B3
The Kd of the first is 66-fold higher: 97.8 pM for the first, 1.48 pM for the second. The second binds more tightly here.

Compared with B2, B3 is 36-fold lower in koff: 0.000174 s⁻¹ for the first, 4.87e-06 s⁻¹ for the second.

Compared with B2, B3 is 1.9-fold higher in kon: 1.78e+06 M⁻¹ s⁻¹ for the first, 3.3e+06 M⁻¹ s⁻¹ for the second.

target: T1, human sclerostin, mature form (signal …); assay: Biacore cross-blocking, human sclerostin on CM5 chip; mixed with competitor Ab-3, each 1.3 uM binding sites
Method: (§1) Human sclerostin was coupled to a CM5 Biacore chip using standard amine coupling chemistry to generate a sclerostin coated surface. 300 resonance units of sclerostin were coupled to the surface.
(§2) 20 μL of the test mixture was passed over the sclerostin-coated chip at a flow rate of 10 μL/min and the amount of binding recorded. The chip was then treated with two 60 second pulses of 30 mM HCl to remove all of the bound antibody. A solution containing only one of the antibodies of the test mixture (at 1.3 μM in the same buffer as the test mixture on a binding site basis) was then passed over the chip in the same manner as the test mixture and the amount of binding recorded. The chip was again treated to remove all of the bound antibody and finally a solution containing the other antibody from the test mixture alone (at 1.3 μM in the same buffer as the test mixture on a binding site basis) was passed over the chip and the amount of binding recorded.
(§3) The table below show the results from cross-blocking assays on a range of different antibodies. The values in each square of the table represent the amount of binding (in RU) seen when the antibodies (at 1.3 μM on a binding site basis) or buffer indicated in the top row of the table were mixed with the antibodies (at 1.3 uM on a binding site basis) or buffer indicated in the first column of the table.

Compared with B1, B4 is lower in “amount of binding (RU)” value: 892 RU for the first, 432 RU for the second.

With B5 the “amount of binding (RU)” value was 869 RU.

target: T1, human sclerostin, mature form (signal …); assay: Biacore cross-blocking, human sclerostin on CM5 chip; mixed with competitor Ab-4, each 1.3 uM binding sites
Method: as §1, §2, §3

First: B1
Second: B4
The “amount of binding (RU)” value of the first is lower: 789 RU for the first, 1010 RU for the second.

For B7, the “amount of binding (RU)” value was 845 RU.

target: T1, human sclerostin, mature form (signal …); assay: Biacore cross-blocking, human sclerostin on CM5 chip; mixed with competitor Ab-A, each 1.3 uM binding sites
Method: as §1, §2, §3

First: B1
Second: B4
The “amount of binding (RU)” value of the first is lower: 863 RU for the first, 1110 RU for the second.

First: B5
Second: B7
The “amount of binding (RU)” value of the first is lower: 860 RU for the first, 952 RU for the second.

target: T1, human sclerostin, mature form (signal …); assay: Biacore cross-blocking, human sclerostin on CM5 chip; mixed with competitor Ab-13, each 1.3 uM binding sites
Method: as §1
(§4) The antibodies to be tested were diluted to a concentration of 200 ug/ml in HBS-EP buffer (being 10 mM HEPES pH 7.4, 150 mM NaCl, 3 mM EDTA, 0.005% (v/v) Surfactant P20) and then mixed in a one to one molar ratio (on a binding site basis) to generate the test mixture. This test mixture thus contained each antibody at a concentration of 100 ug/ml (1.3 um on a binding site basis). Separate solutions containing each of the antibodies in the test mix alone were also prepared. These solutions contained the individual antibodies in HBS-EP buffer at a concentration of 100 ug/ml (1.3 um on a binding site basis).
as §2

B1 and B5 are the same in “amount of binding (RU)” value: 1020 RU for the first, 1020 RU for the second.

In the case of B7, the “amount of binding (RU)” value is reported as 428 RU.

target: T1, human sclerostin, mature form (signal …); assay: Biacore cross-blocking, human sclerostin on CM5 chip; mixed with competitor Ab-19, each 1.3 uM binding sites
Method: as §1, §4, §2

Going from B4 to B5, the “amount of binding (RU)” value falls from 1040 RU to 822 RU.

In the case of B7, the “amount of binding (RU)” value is reported as 896 RU.

target: T1, human sclerostin, mature form (signal …); assay: Biacore cross-blocking on human sclerostin; mixture with competitor Ab-3, mean RU against the sum of each alone
Method: as §1, §4, §2

Going from B4 to B5, the “percentage of the theoretical binding” value rises from 58% to 85.4%.

target: T1, human sclerostin, mature form (signal …); assay: Biacore cross-blocking on human sclerostin; mixture with competitor Ab-19, mean RU against the sum of each alone
Method: as §1, §4, §2

Going from B4 to B5, the “percentage of the theoretical binding” value falls from 97% to 60.8%.

In the case of B7, the “percentage of the theoretical binding” value is reported as 94.4%.
